Assay results reported in patent US20260167699A1 (Chugai, published 2026).

T1: FcγRIIa(R) extracellular domain with C-terminal His tag (human, UniProt P12318 34-217)
T1 construct: extracellular domain; R131 allotype; also called 2aR; CD32
T1 sequence: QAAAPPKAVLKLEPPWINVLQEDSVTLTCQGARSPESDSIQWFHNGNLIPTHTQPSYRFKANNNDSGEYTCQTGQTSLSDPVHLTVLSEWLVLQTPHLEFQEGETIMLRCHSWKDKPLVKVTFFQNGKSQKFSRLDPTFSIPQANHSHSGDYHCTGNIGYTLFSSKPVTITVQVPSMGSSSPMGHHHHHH

T2: FcγRIIb extracellular domain with C-terminal His tag (human, UniProt P31994 43-217)
T2 construct: extracellular domain; also called 2b; CD32
T2 sequence: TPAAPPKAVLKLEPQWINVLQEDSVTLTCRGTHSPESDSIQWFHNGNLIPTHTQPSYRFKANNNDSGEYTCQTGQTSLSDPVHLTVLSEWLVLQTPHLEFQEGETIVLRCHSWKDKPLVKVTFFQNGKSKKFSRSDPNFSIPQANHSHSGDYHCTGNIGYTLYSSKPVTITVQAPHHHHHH

T3: FcγRIIa(H) extracellular domain with C-terminal His tag (human, UniProt P12318 34-217)
T3 construct: extracellular domain; H131 allotype; also called 2aH; CD32
T3 sequence: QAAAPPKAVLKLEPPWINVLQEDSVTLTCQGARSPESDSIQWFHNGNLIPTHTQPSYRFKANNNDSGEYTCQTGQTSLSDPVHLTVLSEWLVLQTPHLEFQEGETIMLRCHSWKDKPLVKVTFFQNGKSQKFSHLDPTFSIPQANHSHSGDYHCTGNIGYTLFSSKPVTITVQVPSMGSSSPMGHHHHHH

B1: GpH7-A5/GpH7-B3 variant E333_02A/GpL16-k0 (antibody, human IgG1, kappa)
heavy 1: not shown
heavy 2: not shown
light: DIVMTQSPLSLPVTPGEPASISCQASESLVHSNRNTYLHWYLQKPGQSPQLLIYKVSNRFSGVPDRFSGSGSGTDFTLKISRVEAEDVGVYYCSQNTHVPPTFGQGTKVEIERTVAAPSVFIFPPSDEQLKSGTASVVCLLNNFYPREAKVQWKVDNALQSGNSQESVTEQDSKDSTYSLSSTLTLSKADYEKHKVYACEVTHQGLSSPVTKSFNRGEC
notes: heterodimerized IgG1 (He Ab), mutation in one H chain only; also called He Ab
B2: GpH7-A5/GpH7-B3 variant E333_03V/GpL16-k0 (antibody, human IgG1, kappa)
heavy 1: not shown
heavy 2: not shown
light: DIVMTQSPLSLPVTPGEPASISCQASESLVHSNRNTYLHWYLQKPGQSPQLLIYKVSNRFSGVPDRFSGSGSGTDFTLKISRVEAEDVGVYYCSQNTHVPPTFGQGTKVEIERTVAAPSVFIFPPSDEQLKSGTASVVCLLNNFYPREAKVQWKVDNALQSGNSQESVTEQDSKDSTYSLSSTLTLSKADYEKHKVYACEVTHQGLSSPVTKSFNRGEC
notes: as for B1
B3: GpH7-A5/GpH7-B3 variant E333_04F/GpL16-k0 (antibody, human IgG1, kappa)
heavy 1: not shown
heavy 2: not shown
light: DIVMTQSPLSLPVTPGEPASISCQASESLVHSNRNTYLHWYLQKPGQSPQLLIYKVSNRFSGVPDRFSGSGSGTDFTLKISRVEAEDVGVYYCSQNTHVPPTFGQGTKVEIERTVAAPSVFIFPPSDEQLKSGTASVVCLLNNFYPREAKVQWKVDNALQSGNSQESVTEQDSKDSTYSLSSTLTLSKADYEKHKVYACEVTHQGLSSPVTKSFNRGEC
notes: as for B1
B4: GpH7-A5/GpH7-B3 variant E333_05P/GpL16-k0 (antibody, human IgG1, kappa)
heavy 1: not shown
heavy 2: not shown
light: DIVMTQSPLSLPVTPGEPASISCQASESLVHSNRNTYLHWYLQKPGQSPQLLIYKVSNRFSGVPDRFSGSGSGTDFTLKISRVEAEDVGVYYCSQNTHVPPTFGQGTKVEIERTVAAPSVFIFPPSDEQLKSGTASVVCLLNNFYPREAKVQWKVDNALQSGNSQESVTEQDSKDSTYSLSSTLTLSKADYEKHKVYACEVTHQGLSSPVTKSFNRGEC
notes: as for B1
B5: GpH7-A5/GpH7-B3 variant E333_06M/GpL16-k0 (antibody, human IgG1, kappa)
heavy 1: not shown
heavy 2: not shown
light: DIVMTQSPLSLPVTPGEPASISCQASESLVHSNRNTYLHWYLQKPGQSPQLLIYKVSNRFSGVPDRFSGSGSGTDFTLKISRVEAEDVGVYYCSQNTHVPPTFGQGTKVEIERTVAAPSVFIFPPSDEQLKSGTASVVCLLNNFYPREAKVQWKVDNALQSGNSQESVTEQDSKDSTYSLSSTLTLSKADYEKHKVYACEVTHQGLSSPVTKSFNRGEC
notes: as for B1
B6: GpH7-A5/GpH7-B3 variant E333_07I/GpL16-k0 (antibody, human IgG1, kappa)
heavy 1: not shown
heavy 2: not shown
light: DIVMTQSPLSLPVTPGEPASISCQASESLVHSNRNTYLHWYLQKPGQSPQLLIYKVSNRFSGVPDRFSGSGSGTDFTLKISRVEAEDVGVYYCSQNTHVPPTFGQGTKVEIERTVAAPSVFIFPPSDEQLKSGTASVVCLLNNFYPREAKVQWKVDNALQSGNSQESVTEQDSKDSTYSLSSTLTLSKADYEKHKVYACEVTHQGLSSPVTKSFNRGEC
notes: as for B1
B7: GpH7-A5/GpH7-B3 variant E333_08L/GpL16-k0 (antibody, human IgG1, kappa)
heavy 1: not shown
heavy 2: not shown
light: DIVMTQSPLSLPVTPGEPASISCQASESLVHSNRNTYLHWYLQKPGQSPQLLIYKVSNRFSGVPDRFSGSGSGTDFTLKISRVEAEDVGVYYCSQNTHVPPTFGQGTKVEIERTVAAPSVFIFPPSDEQLKSGTASVVCLLNNFYPREAKVQWKVDNALQSGNSQESVTEQDSKDSTYSLSSTLTLSKADYEKHKVYACEVTHQGLSSPVTKSFNRGEC
notes: as for B1
B8: GpH7-A5/GpH7-B3 variant E333_09D/GpL16-k0 (antibody, human IgG1, kappa)
heavy 1: not shown
heavy 2: not shown
light: DIVMTQSPLSLPVTPGEPASISCQASESLVHSNRNTYLHWYLQKPGQSPQLLIYKVSNRFSGVPDRFSGSGSGTDFTLKISRVEAEDVGVYYCSQNTHVPPTFGQGTKVEIERTVAAPSVFIFPPSDEQLKSGTASVVCLLNNFYPREAKVQWKVDNALQSGNSQESVTEQDSKDSTYSLSSTLTLSKADYEKHKVYACEVTHQGLSSPVTKSFNRGEC
notes: as for B1
B9: GpH7-A5/GpH7-B3 variant E333_11K/GpL16-k0 (antibody, human IgG1, kappa)
heavy 1: not shown
heavy 2: not shown
light: DIVMTQSPLSLPVTPGEPASISCQASESLVHSNRNTYLHWYLQKPGQSPQLLIYKVSNRFSGVPDRFSGSGSGTDFTLKISRVEAEDVGVYYCSQNTHVPPTFGQGTKVEIERTVAAPSVFIFPPSDEQLKSGTASVVCLLNNFYPREAKVQWKVDNALQSGNSQESVTEQDSKDSTYSLSSTLTLSKADYEKHKVYACEVTHQGLSSPVTKSFNRGEC
notes: as for B1
B10: GpH7-A5/GpH7-B3 variant E333_12R/GpL16-k0 (antibody, human IgG1, kappa)
heavy 1: not shown
heavy 2: not shown
light: DIVMTQSPLSLPVTPGEPASISCQASESLVHSNRNTYLHWYLQKPGQSPQLLIYKVSNRFSGVPDRFSGSGSGTDFTLKISRVEAEDVGVYYCSQNTHVPPTFGQGTKVEIERTVAAPSVFIFPPSDEQLKSGTASVVCLLNNFYPREAKVQWKVDNALQSGNSQESVTEQDSKDSTYSLSSTLTLSKADYEKHKVYACEVTHQGLSSPVTKSFNRGEC
notes: as for B1
B11: GpH7-A5/GpH7-B3 variant E333_13S/GpL16-k0 (antibody, human IgG1, kappa)
heavy 1: not shown
heavy 2: not shown
light: DIVMTQSPLSLPVTPGEPASISCQASESLVHSNRNTYLHWYLQKPGQSPQLLIYKVSNRFSGVPDRFSGSGSGTDFTLKISRVEAEDVGVYYCSQNTHVPPTFGQGTKVEIERTVAAPSVFIFPPSDEQLKSGTASVVCLLNNFYPREAKVQWKVDNALQSGNSQESVTEQDSKDSTYSLSSTLTLSKADYEKHKVYACEVTHQGLSSPVTKSFNRGEC
notes: as for B1
B12: GpH7-A5/GpH7-B3 variant E333_14T/GpL16-k0 (antibody, human IgG1, kappa)
heavy 1: not shown
heavy 2: not shown
light: DIVMTQSPLSLPVTPGEPASISCQASESLVHSNRNTYLHWYLQKPGQSPQLLIYKVSNRFSGVPDRFSGSGSGTDFTLKISRVEAEDVGVYYCSQNTHVPPTFGQGTKVEIERTVAAPSVFIFPPSDEQLKSGTASVVCLLNNFYPREAKVQWKVDNALQSGNSQESVTEQDSKDSTYSLSSTLTLSKADYEKHKVYACEVTHQGLSSPVTKSFNRGEC
notes: as for B1
B13: GpH7-A5/GpH7-B3 variant E333_15Y/GpL16-k0 (antibody, human IgG1, kappa)
heavy 1: not shown
heavy 2: not shown
light: DIVMTQSPLSLPVTPGEPASISCQASESLVHSNRNTYLHWYLQKPGQSPQLLIYKVSNRFSGVPDRFSGSGSGTDFTLKISRVEAEDVGVYYCSQNTHVPPTFGQGTKVEIERTVAAPSVFIFPPSDEQLKSGTASVVCLLNNFYPREAKVQWKVDNALQSGNSQESVTEQDSKDSTYSLSSTLTLSKADYEKHKVYACEVTHQGLSSPVTKSFNRGEC
notes: as for B1
B14: GpH7-A5/GpH7-B3 variant E333_16H/GpL16-k0 (antibody, human IgG1, kappa)
heavy 1: not shown
heavy 2: not shown
light: DIVMTQSPLSLPVTPGEPASISCQASESLVHSNRNTYLHWYLQKPGQSPQLLIYKVSNRFSGVPDRFSGSGSGTDFTLKISRVEAEDVGVYYCSQNTHVPPTFGQGTKVEIERTVAAPSVFIFPPSDEQLKSGTASVVCLLNNFYPREAKVQWKVDNALQSGNSQESVTEQDSKDSTYSLSSTLTLSKADYEKHKVYACEVTHQGLSSPVTKSFNRGEC
notes: as for B1
B15: GpH7-A5/GpH7-B3 variant E333_18N/GpL16-k0 (antibody, human IgG1, kappa)
heavy 1: not shown
heavy 2: not shown
light: DIVMTQSPLSLPVTPGEPASISCQASESLVHSNRNTYLHWYLQKPGQSPQLLIYKVSNRFSGVPDRFSGSGSGTDFTLKISRVEAEDVGVYYCSQNTHVPPTFGQGTKVEIERTVAAPSVFIFPPSDEQLKSGTASVVCLLNNFYPREAKVQWKVDNALQSGNSQESVTEQDSKDSTYSLSSTLTLSKADYEKHKVYACEVTHQGLSSPVTKSFNRGEC
notes: as for B1

Key:
Assay in all cases: SPR; % of GpH7-A5/GpH7-B3/GpL16-k0
[1] = target: T1, FcγRIIa(R) extracellular domain with …
[2] = target: T4, FcγRIIIa extracellular domain with C-terminal His tag (human, UniProt P08637 17-208)
T4 construct: extracellular domain; also called 3a; CD16

[3] = target: T2, FcγRIIb extracellular domain with …
[4] = target: T5, FcγRIa extracellular domain with C-terminal His tag (human, UniProt P12314 16-292)
T5 construct: extracellular domain; also called 1a; CD64

[5] = target: T3, FcγRIIa(H) extracellular domain with …

T5 sequence (P12314 other isoform, or with tags, fused parts or gaps): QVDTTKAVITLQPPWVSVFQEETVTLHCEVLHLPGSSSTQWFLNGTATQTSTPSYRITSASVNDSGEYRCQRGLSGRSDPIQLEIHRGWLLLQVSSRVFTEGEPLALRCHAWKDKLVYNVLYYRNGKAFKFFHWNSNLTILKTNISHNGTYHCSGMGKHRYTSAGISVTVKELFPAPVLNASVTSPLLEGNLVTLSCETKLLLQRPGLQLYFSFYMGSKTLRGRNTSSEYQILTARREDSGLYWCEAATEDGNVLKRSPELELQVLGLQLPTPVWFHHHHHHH
T4 sequence (P08637 other isoform, or with tags, fused parts or gaps): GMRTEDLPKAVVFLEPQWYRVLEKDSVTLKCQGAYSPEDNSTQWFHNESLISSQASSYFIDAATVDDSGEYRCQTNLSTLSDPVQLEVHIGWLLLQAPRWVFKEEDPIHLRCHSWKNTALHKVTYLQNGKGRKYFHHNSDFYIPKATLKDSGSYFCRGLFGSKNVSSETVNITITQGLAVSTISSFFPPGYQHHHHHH

Row | He/Con 2aR [1] [%] | He/Con 3a [2] [%] | He/Con 2b [3] [%] | He/Con 1a [4] [%] | He/Con 2aH [5] [%] | Binder
1 | 128 | 108 | 108 | 97.7 | 115 | B1
2 | 135 | 106 | 120 | 99.4 | 112 | B2
3 | 139 | 104 | 122 | 96.9 | 116 | B3
4 | 143 | 100 | 126 | 96.9 | 112 | B4
5 | 132 | 100 | 110 | 96.7 | 110 | B5
6 | 142 | 100 | 124 | 96.5 | 113 | B6
7 | 140 | 102 | 123 | 96.8 | 116 | B7
8 | 141 | 115 | 122 | 98 | 119 | B8
9 | 128 | 97.7 | 104 | 96.6 | 112 | B9
10 | 127 | 92.2 | 104 | 96.7 | 110 | B10
11 | 125 | 106 | 106 | 97.6 | 115 | B11
12 | 135 | 100 | 111 | 96.7 | 115 | B12
13 | 137 | 101 | 122 | 95.8 | 114 | B13
14 | 119 | 106 | 108 | 95.4 | 114 | B14
15 | 118 | 76.2 | 98.2 | 91.4 | 110 | B15
